From US20120282282A1, “Methods for Decreasing Ocular Toxicity of Antibody Drug Conjugates” (priority 2011, published 2012)
Where two headings read alike, the source gives them in different places.

Tests used:
[1] = SAR3419 Phase I clinical trials, pharmacokinetics and toxicity; format: in vivo, human
Text: SAR3419 is a DM4-containing antibody drug conjugate that comprises the humanized antibody Hu-B4 (humanized mouse IgG1 MAb targeting CD19) and the SPDB linker. Phase I clinical trials were initiated in patients having relapsed or refractory CD19+B cell Non-Hodgkins Lymphoma.

[2] = format: in vivo; conditions: rabbit, 3 weekly doses
Protocol: Maytansinoid conjugates with different linker-maytansinoid formats were evaluated for induction of corneal ocular toxicity in a preclinical rabbit model. Hallmarks of corneal epithelial damage such as migration of pigmented basal epithelial cells distal from the limbus, corneal pannus, and epithelial erosion were assessed following 3 weekly doses.

[3] = IMGN242 pharmacokinetics and toxicity in human clinical trials; format: in vivo
[4] = IMGN242 preclinical pharmacokinetic studies, cynomolgus monkeys; format: in vivo
Protocol: (§1) IMGN242 is an antibody drug conjugate for the treatment of CanAg-expressing tumors. The compound is made by conjugating the potent cytotoxic maytansinoid, DM4, to the monoclonal antibody, huC242. Forty-five patients have been treated with IMGN242 at 8 different dose levels (18 to 297 mg/m2) in two clinical trials. […] The determined half-life in patients was similar to that predicted for IMGN242 from preclinical pharmacokinetic studies (t1/2 about 5 days in mice and 4 days in cynomolgus monkeys).

[5] = IMGN242 preclinical pharmacokinetic studies, mice; format: in vivo
Protocol: as §1

[6] = patients, 160 mg/m^2 and 208 mg/m^2
[7] = patients with low circulating CanAg (<1000 U/mL)

**Q.** With SAR3419 as the molecule, how does the elimination [1, 6] read?
**A.** eliminated rapidly

**Q.** And the exposure versus dose [1, 6]?
**A.** increased with dose

**Q.** And the ocular toxicity ([1]; some patients, 160 mg/m^2 or 208 mg/m^2)?
**A.** displayed ocular toxicity

**Q.** For SMCC-DM1, which corneal ocular toxicity ([2]; dose 8 mg/kg) is on record?
**A.** −

**Q.** And the corneal ocular toxicity ([2]; dose 10 mg/kg)?
**A.** −

**Q.** What about the corneal ocular toxicity ([2]; dose 12 mg/kg) of the same molecule?
**A.** −

**Q.** And the corneal ocular toxicity ([2]; dose 16 mg/kg)?
**A.** −

B1: IMGN242 (conjugate, chains of the INN, looked up)
VH: QVQLVQSGAEVKKPGETVKISCKASDYTFTYYGMNWVKQAPGQGLKWMGWIDTTTGEPTYAQKFQGRIAFSLETSASTAYLQIKSLKSEDTATYFCARRGPYNWYFDVWGQGTTVTVSS
VL: DIVMTQSPLSVPVTPGEPVSISCRSSKSLLHSNGNTYLYWFLQRPGQSPQLLIYRMSNLVSGVPDRFSGSGSGTAFTLRISRVEAEDVGVYYCLQHLEYPFTFGPGTKLELK
modifications: maytansinoid DM1 payload (mertansine)
**Q.** With B1 as the molecule, how does the Cmax versus dose ([3]; patients) read?
**A.** increased proportionally with increasing dose

**Q.** What about the “effect of circulating CanAg levels on Cmax” value ([3]; patients) of the same molecule?
**A.** not significantly affected

**Q.** And the increase in clearance ([3]; patients with high CanAg (>1000 U/mL) compared to low (<1000 U/mL))?
**A.** 3 to 5 fold

**Q.** What about the “duration of initial rapid distribution phase” value [3, 7] of the same molecule?
**A.** about 48 hours

**Q.** What about the “pharmacokinetic profile in plasma” value [3, 7] of the same molecule?
**A.** two-phase pharmacokinetic profile

**Q.** What about the elimination phase half-life ([3]; patients with low circulating CanAg, preliminary analysis) of the same molecule?
**A.** about 5 days

**Q.** What about the “incidence of possible study drug-related ocular toxicities” value ([3]; patients with low plasma CanAg (<1000 U/ml), dose 168 mg/m2) of the same molecule?
**A.** notable incidence

**Q.** And the “dose limiting toxicities (DLTs)” value ([3]; patients, 18 to 297 mg/m2)?
**A.** decreased visual acuity, corneal deposits and keratitis

**Q.** And the t1/2 [4]?
**A.** ~96 h

**Q.** And the t1/2 [5]?
**A.** about 5 days
